Results as given in PMC3912326.
Like-named read-outs stand apart in the source and are kept apart here.

How the values were obtained:
Experiment in all cases: fluorescence anisotropy
[1] = target: T1, mouse transferrin receptor (mTfR) (Mus musculus, UniProt Q62351 89-763)
[2] = target: human transferrin receptor (hTfR) (Homo sapiens, UniProt P02786 89-760)
[3] = target: T1, mouse transferrin receptor (mTfR); remark: listed apart in the source
transferrin (Tf) = transferrin (Tf) (UniProt P02787 20-698)
Chain of transferrin (Tf) (P02787 20-698): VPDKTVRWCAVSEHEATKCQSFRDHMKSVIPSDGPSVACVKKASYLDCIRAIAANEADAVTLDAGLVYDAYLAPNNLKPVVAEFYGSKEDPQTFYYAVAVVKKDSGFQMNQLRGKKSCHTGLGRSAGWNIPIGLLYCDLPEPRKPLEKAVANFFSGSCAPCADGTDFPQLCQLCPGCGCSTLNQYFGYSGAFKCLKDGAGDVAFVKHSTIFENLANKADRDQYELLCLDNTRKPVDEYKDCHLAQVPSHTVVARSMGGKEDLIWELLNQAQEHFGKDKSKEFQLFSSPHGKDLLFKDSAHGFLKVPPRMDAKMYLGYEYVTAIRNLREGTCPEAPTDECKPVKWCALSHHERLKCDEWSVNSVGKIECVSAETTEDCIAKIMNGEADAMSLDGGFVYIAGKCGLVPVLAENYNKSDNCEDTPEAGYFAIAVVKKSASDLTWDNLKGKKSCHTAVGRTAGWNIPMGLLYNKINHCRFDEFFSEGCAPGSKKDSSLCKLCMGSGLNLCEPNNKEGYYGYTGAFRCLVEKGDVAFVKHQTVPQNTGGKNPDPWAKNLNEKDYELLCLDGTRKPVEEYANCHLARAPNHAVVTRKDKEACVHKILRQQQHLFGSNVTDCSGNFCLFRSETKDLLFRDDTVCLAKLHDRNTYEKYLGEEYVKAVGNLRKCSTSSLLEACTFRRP

[4] = target: T1, mouse transferrin receptor (mTfR); remark: listed apart in the source

T1 sequence (Q62351 89-763): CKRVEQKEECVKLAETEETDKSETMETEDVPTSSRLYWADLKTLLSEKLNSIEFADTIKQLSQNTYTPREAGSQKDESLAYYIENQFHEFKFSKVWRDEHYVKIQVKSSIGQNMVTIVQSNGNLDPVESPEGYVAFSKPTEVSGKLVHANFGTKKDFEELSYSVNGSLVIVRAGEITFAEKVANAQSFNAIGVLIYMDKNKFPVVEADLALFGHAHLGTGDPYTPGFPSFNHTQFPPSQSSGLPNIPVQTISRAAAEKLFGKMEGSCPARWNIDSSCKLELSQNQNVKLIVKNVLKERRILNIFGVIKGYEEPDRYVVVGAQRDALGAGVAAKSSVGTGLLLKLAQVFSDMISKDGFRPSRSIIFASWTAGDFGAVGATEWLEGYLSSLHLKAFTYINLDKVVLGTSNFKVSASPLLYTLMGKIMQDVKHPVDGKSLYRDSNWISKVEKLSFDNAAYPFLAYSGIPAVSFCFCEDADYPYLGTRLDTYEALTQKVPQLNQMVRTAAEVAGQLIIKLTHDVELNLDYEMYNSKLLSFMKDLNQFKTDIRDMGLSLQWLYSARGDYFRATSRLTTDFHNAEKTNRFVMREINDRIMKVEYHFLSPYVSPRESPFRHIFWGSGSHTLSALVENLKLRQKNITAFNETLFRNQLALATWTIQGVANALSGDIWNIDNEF
Chain of human transferrin receptor (hTfR) (P02786 89-760): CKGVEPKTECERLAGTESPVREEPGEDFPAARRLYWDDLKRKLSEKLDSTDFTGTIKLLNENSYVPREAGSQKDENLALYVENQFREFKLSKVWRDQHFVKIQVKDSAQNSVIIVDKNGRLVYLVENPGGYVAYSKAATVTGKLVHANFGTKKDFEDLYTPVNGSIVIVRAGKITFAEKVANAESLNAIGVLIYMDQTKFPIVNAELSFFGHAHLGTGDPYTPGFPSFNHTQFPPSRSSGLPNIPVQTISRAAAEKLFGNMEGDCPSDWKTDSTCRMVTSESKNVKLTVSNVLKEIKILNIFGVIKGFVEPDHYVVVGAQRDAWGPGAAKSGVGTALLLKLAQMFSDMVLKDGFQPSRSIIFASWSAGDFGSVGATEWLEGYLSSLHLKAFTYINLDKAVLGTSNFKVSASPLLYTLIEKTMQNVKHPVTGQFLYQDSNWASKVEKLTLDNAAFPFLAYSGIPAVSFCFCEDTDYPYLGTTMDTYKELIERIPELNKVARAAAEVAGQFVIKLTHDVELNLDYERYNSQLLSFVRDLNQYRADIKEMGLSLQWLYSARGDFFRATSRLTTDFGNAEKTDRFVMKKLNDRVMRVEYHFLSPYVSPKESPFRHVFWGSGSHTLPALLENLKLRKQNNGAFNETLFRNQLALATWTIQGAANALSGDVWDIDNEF

Q: For CACTTAGTATCGCTACGTTCTTTGGTTCCGTTCGG (structured_DNA, 5' amino C6 linker) [GS24min], which Kd [1] is on record?
A: The Kd was 1200 ± 390 nM.

Q: How did the Kd [2] turn out when GCGTGTGCACACGGTCACTTAGTATCGCTACGTTCTTTGGTTCCGTTCGG (structured_DNA, 5' amino C6 linker) [GS24 (equilibrium mixture A-1F:A-2F 20:80)] was run?
A: Its Kd is 1000 ± 250 nM.

Q: And the Kd [3]?
A: Its Kd is 250 ± 40 nM.

Q: Does GCGTGTGCACACGGTCACTTAGTATCGCTACGTTCTTTGGTTCCGTTCGG (structured_DNA, 5' amino C6 linker) [GS24 (equilibrium mixture A-1F:A-2F 20:80)] bind (transferrin (Tf))?
A: Result: no binding

Q: Which Kd [4] does the source give for GCGTGTGCACACGGTCACTTAGTATCGCTACGTTCTTTGGTTCCGTTCGG (structured_DNA, 5' amino C6 linker) [GS24 fold A-2F (purified active fold)] here?
A: The Kd was 130 ± 30 nM.
